Target: T1, Mmi1 YTH domain (longer construct) (Schizosaccharomyces pombe, UniProt O74958 326-488)
T1 sequence: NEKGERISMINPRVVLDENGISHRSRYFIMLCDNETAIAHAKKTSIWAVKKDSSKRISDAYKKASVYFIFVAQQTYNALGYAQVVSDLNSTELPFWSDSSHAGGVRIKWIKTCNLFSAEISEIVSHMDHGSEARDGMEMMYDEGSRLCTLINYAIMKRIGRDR
Assay: ITC

AUUAAACA (ssRNA) [DSR 8-mer]: binds.
